In PMC4689532:

How the values were obtained:
Assay in all cases: SPR; Biacore T100, 37°C, HBS-EP; biotinylated ligand captured with the Biotin CAPture Kit, reference biotinylated rat Cd4d3+4; purified his-tagged analyte injected at 20 μl/min, equilibrium fit Req = CRmax/(C+KD); lower concentrations did not reach equilibrium, KD likely slightly overestimated
[1] = target: P. vivax P41 (PVX_000995, 6-cysteine protein), entire ectodomain, AVEXIS bait/prey form (P. vivax) (UniProt A5KAP6)
[2] = target: P. falciparum P41, AVEXIS bait/prey form (P. falciparum)
[3] = target: P. vivax P12 (PVX_113775, 6-cysteine protein), entire ectodomain, AVEXIS bait/prey form (P. vivax) (UniProt A5K1W7)

Which results are given for “P. vivax P12 (PVX_113775), entire ectodomain, 6-His tagged, purified (from UniProt A5K1W7 24-339) (domain or fragment)”?
Kd [1]: 0.12 µM; Kd [2]: 0.031 µM

“P. vivax P41 (PVX_000995), entire ectodomain, 6-His tagged, purified (from UniProt A5KAP6 22-384) (domain or fragment)” was tested. Which Kd [3] did it give?
The Kd was 0.077 µM.
